Results on nine molecules are retold here after patent publication US20080267971A1 (published 2008).

Assay [1] addresses T1, mouse Angiopoietin-2 (mouse, UniProt O35608 19-496).
T1 construct: Used as conditioned medium of transfectants; also called mAng-2; mouse Ang-2
T1 sequence: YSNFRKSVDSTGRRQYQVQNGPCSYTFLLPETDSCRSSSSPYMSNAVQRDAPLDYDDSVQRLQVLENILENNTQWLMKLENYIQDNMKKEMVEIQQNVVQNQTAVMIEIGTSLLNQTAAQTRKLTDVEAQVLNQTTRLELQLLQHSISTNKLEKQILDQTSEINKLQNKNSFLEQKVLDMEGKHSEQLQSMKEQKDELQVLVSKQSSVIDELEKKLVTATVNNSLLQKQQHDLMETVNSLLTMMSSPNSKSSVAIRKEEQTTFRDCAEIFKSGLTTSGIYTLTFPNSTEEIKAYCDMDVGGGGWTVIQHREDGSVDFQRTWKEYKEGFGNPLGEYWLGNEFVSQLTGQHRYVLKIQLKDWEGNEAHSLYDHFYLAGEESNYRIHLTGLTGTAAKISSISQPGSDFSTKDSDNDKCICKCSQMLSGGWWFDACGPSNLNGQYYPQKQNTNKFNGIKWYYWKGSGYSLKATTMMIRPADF
Nature of the assay: ELISA on plates coated with conditioned medium of HEK293F/mouse Ang-2 transfectants, mAb titrated, detection with anti-human Fc-HRP. As to the method:
The plates were incubated at 4° C. overnight, followed by washing four times using Phosphate Buffer Saline with a Skan Washer 300 station (SKATRON). The wells were blocked by 100 μl of ABX-block buffer (0.5% BSA, 0.1% Tween, 0.01% Thimerosal in PBS) for 1 hour. […] The mAbs and each of their dilutes were tested in duplicate. After washing twice, the bound mAbs were detected by goat anti-human Fc-HPPO-conjugated antibody (Caltag, Code H10507) at 1/1,000 dilution at room temperature for an hour. To set up the detecting chromagenic reaction, 100 μl of TMB substrate (TMB-microwell, BioFX, Cat. No. TMSK-1000-01) was added after washing the wells three times using PBS. The plates were incubated for 30 minutes before 650 stop solution (100 μl/well, BioFX, Cat. No. BSTP-0100-01) was added to terminate the reaction. The light absorbance at […] was determined by a Spectramax Plus reader.

For assay [2], the target named is T2, human Angiopoietin-2 (human, UniProt O15123 19-496).
T2 sequence: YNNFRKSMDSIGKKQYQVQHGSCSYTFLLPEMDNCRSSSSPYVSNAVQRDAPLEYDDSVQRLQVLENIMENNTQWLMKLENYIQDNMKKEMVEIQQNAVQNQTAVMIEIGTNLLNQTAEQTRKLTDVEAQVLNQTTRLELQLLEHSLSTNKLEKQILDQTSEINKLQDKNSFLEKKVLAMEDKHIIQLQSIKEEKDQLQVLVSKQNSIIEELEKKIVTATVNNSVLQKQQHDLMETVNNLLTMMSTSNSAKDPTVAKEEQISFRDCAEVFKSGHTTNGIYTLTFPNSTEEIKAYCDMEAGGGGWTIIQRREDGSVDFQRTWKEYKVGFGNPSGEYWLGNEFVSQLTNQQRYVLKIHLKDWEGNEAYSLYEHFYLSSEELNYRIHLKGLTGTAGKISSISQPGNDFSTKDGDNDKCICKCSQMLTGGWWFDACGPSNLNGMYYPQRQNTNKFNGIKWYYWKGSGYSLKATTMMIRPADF
Briefly: cell-based or functional assay.

Assay [3] addresses T2, human Angiopoietin-2. Briefly: competition ELISA: biotin-Ang-2 on coated Tie2/Fc. As for the experimental part:
96-well Nunc Immplates™ were coated with 100 μl of recombinant human Tie2/Fc fusion protein (R&D Systems, Inc., Cat. No. 313-TI-100) at 4 μg/ml by incubating overnight at 4° C. The plates were washed four times using Phosphate Buffer Saline (PBS) with a Skan™ Washer 300 station (SKATRON). The wells were blocked by 100 μl of ABX-blocking buffer (0.5% BSA, 0.1% Tween, 0.01% Thimerosal in PBS) for 1 hour.
The plates were incubated at room temperature for two hours before the unbound molecules were washed off. […] After washing twice, the bound Streptavidin was detected by HRP substrate (R&D Systems, Cat. No. DY998). The plates were incubated for 30 minutes before 450 stop solution (100 μl/well, BioFX, Cat# BSTP-0100-01) was added to terminate the reaction. The light absorbance at 450 nm was determined by a Spectramax Plus reader.
Each concentration of the mAb was tested in duplicate. The concentration-response relationship was found by curve fitting using Graphpad Prism™ graphic software (non-linear, Sigmoid curve). The maximal inhibition (efficacy) and IC₅₀ (potency) were calculated by the software.
A general note: An ELISA detects its analyte on a solid surface through an enzyme-linked reagent.

Assay [4] concerns the target T2, human Angiopoietin-2. Nature of the assay: high resolution Biacore, 1st experiment; kd held constant (*). As for the experimental part:
The mAb was then immobilized on flow cells 1-3 (CM5 Biacore chip) using routine amine coupling, leaving flow cell 4 as the reference flow cell.
The antibody surfaces were regenerated with a 6-second pulse of 15 mM NaOH after each injection cycle.
The sample injections alternated with three blank injection cycles. Each surface was regenerated with a 6-second pulse of 15 mM NaOH after each long off-rate injection cycle.
In general terms: Surface plasmon resonance follows binding to a sensor surface in real time, without labels.

For assay [5], the target named is T2, human Angiopoietin-2. Nature of the assay: Biacore; kd held constant (*); kd held constant in the fit, not measured. As for the experimental part: The label-free surface plasmon resonance (SPR), or Biacore, was utilized to measure the antibody affinity to the antigen. For this purpose, a high-density goat anti-human antibody surface over a CM5 Biacore chip was prepared using routine amine coupling. All the purified mAbs were diluted to approximately 8 μg/ml in HBS-P running buffer containing 100 μg/ml BSA and 10 mg/mL carboxymethyldextran. Each mAb was captured on a separate surface using a 42-second contact time, and a 5-minute wash for stabilization of the mAb baseline.
Data were fit globally to a 1:1 interaction model to determine the binding kinetics.

B1: mAb 3.19.3 (antibody, V domains shown)
VH: QVQLVESGGGVVQPGRSLRLSCAASGFTFTNYGMHWGRQAPGKGLEWVAVISHDGNNKYYVDSVKGRFTISRDNSKNTLYLQMNSLRAEDTAVYYCAREGIDFWSGLNWFDPWGQGTLVTVSS
VL: EIVLTQSPGTLSLSPGERATLSCRASQSITGSYLAWYQQKPGQAPRLLICGASSWATGIPDRFSGSGSGTDFTLTISRLEPEDFAVYYCQQYSSSPITFGQGTRLEIKR
notes: Human hybridoma IgG (XenoMouse); also called x3.19
By EC50 (read off the curve) is commonly meant the concentration at which the effect is half-maximal. By EC50 is commonly meant the concentration at which the effect is half-maximal. Read a low EC50 as greater potency. A word on the koff: it is the rate constant with which the complex falls apart. Higher therefore signals fast dissociation. B1: the “EC50 (read off the curve)” value in assay [1] was around 1 µg/mL. Besides, the “EC50, inhibition of Ang-2-induced Tie2 phosphorylation (HEK293F/Tie2, ELISA)” value (“EC50, inhibition … (HEK293F/Tie2, ELISA)” below) in assay [2] worked out at 0.006 µg/mL. In assay [3], the concentration giving a half-maximal response (EC50) worked out at 0.798 µg/mL and the “Efficacy (ratio of bound Ang-2 with mAb 30 µg/ml versus without)” value was found to be 0.395 ratio. The same molecule showed a koff in assay [4] of around 1e-06 s⁻¹.

B2: mAb 5.86.1 (antibody, V domains shown)
VH: QVQLVQSGAEVKKPGASVKVSCKASGYTFTGYHMYWVRQAPGQGLEWLGWINPNSGGTNYAQKFQGRVTMTRDTSISTAYMELSRLRSDDTAVYYCVRDQGIAAAGPFDYWCQGTLVTVSS
VL: DIRMTQSPSSLSASVGDRVTITCRASQRISTYLNWYQQKPGKAPKFLIYAASSLQSGVPSRFSGSGSGTDFTLTISSLQPEDFATYYCQQSYTTPFTFGPGTKVDIKR
notes: Human hybridoma IgG (XenoMouse); also called x5.86
B2: the “EC50, inhibition … (HEK293F/Tie2, ELISA)” value in assay [2] was 0.008 µg/mL. For the same molecule, in assay [3], the EC50 stood at 0.133 µg/mL and the “Efficacy (ratio of bound Ang-2 with mAb 30 µg/ml versus without)” value came to 0.384 ratio.

B3: mAb 5.103.1 (antibody, V domains shown)
VH: QVQLVQSGAEVKKPGASVKVSCKASGYTFTGYYLYWVPQAPGQGLEWMGWISPNSGGTNYAQKFQGRVTMTRDTSISTAYMELSRLRSDDTAVYYCARDQVIAVAGPFDYWAQGTLVTVSS
VL: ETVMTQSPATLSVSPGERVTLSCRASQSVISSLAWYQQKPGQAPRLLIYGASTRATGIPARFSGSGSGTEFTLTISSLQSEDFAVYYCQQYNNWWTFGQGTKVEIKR
notes: Human hybridoma IgG (XenoMouse); also called 5.103.3; x5.103
As to B3, the “EC50, inhibition … (HEK293F/Tie2, ELISA)” value in assay [2] was 0.095 µg/mL. Also, in assay [3], a half-maximal effect (EC50) was put at 0.364 µg/mL and the “Efficacy (ratio of bound Ang-2 with mAb 30 µg/ml versus without)” value stood at 0.232 ratio.

B4: mAb 5.52.1 (antibody, V domains shown)
VH: QVQLVESGGGVVQPGRSLRLSCAASGFTFSSYGMHWVRQAPGKGLEWVAVRWYDESNKYYADSVKGRFTISRDNSKNTLYLQMNSLRAEDTAVYYCARDPFETGTTFDYWGQGTLVTVSS
VL: DIQMTQSPSSVSASVGDRVTITCRASQGISSWLAWYQQKPGKAPKLLIYAVSSLESGVPSRFSGSGSGTDFTLTISSLQPEDFATYYCQQALTFGGGTKVEIKR
notes: Human hybridoma IgG (XenoMouse); the line 5.52 has entries of its own (347, 349; light chain L2) that differ from the clone 5.52.1 (L5); also called x5.52
For the molecule B4, in assay [5], the koff is at most 1e-05 s⁻¹.

B5: mAb 5.28.1 (antibody, V domains shown)
VH: EVQLVESGGIVVQPGGSLRLSCAASGFTFDDYTMHWVRQTPGKGLEWVSLISWDGGSTYYADSVKGRFTISRDNSKNSLYLQMNSLRTEDTALYYCAKDIDIAVAGTGFDHWGQGTLVTVSS
VL: EIVMTQSPATLSVSPGERATLSCRASQSVTSNLAWYQQKPGQAPRLLIYGALIRATGIPARFSGSGSGTEFTLTISSLQSEDFAVYYCQQYNNWPFTFGPGTKVDIKR
notes: Human hybridoma IgG (XenoMouse); also called x5.28
Consider B5, for which the binding result in assay [1] is listed as “no binding (tested: 100 µg/ml)”. Moreover, in assay [3], the midpoint of the response, the EC50, lay at 2.7 µg/mL and the “Efficacy (ratio of bound Ang-2 with mAb 30 µg/ml versus without)” value was found to be 0.389 ratio.

B6: mAb 5.101.1 (antibody, V domains shown)
VH: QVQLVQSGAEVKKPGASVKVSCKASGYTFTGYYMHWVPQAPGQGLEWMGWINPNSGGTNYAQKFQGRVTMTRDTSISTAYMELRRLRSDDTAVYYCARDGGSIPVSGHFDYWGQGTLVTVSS
VL: EIVMTQSPATLSVSPGERATLSCRASQSLISNLAWYQQKPGQAPRLLIFGASTRATGIPARFSGSGSGTEFTLTISSLQSEDFAVYYCHQYNNWWTFGQGTKVEIKR
notes: Human hybridoma IgG (XenoMouse); also called x5.101
With B6, the “EC50, inhibition … (HEK293F/Tie2, ELISA)” value in assay [2] was 0.733 µg/mL. Besides, in assay [3], it took 0.376 µg/mL to reach a half-maximal effect (EC50) and the “Efficacy (ratio of bound Ang-2 with mAb 30 µg/ml versus without)” value stood at 0.364 ratio.

B7: mAb 5.88.3 (antibody, V domains shown)
VH: EVQMVESGGGLVQPGGSLRLSCAASGFTLRSYWMSWVRQAPGKGLEWVANIKEDGSEKYHVDSVKGRFTISRDNAENSLFLQMSSLRAEDTAVYYCARDMEASAGLFDYWGQGTLVTVSS
VL: EIVMTQSPATLSVSPGERAILSCRASQSISSNLAWYQQKPGQAPRLLIYGASTRATGIPARFSGSGSGTEFTLTISSLQSEDFAVYYCQQYNYWWTFGQGTKVEIKR
notes: Human hybridoma IgG (XenoMouse); also called x5.88
As to B7, the “EC50, inhibition … (HEK293F/Tie2, ELISA)” value in assay [2] was determined as 0.016 µg/mL. For the same molecule, in assay [3], the EC50 was determined as 0.156 µg/mL and the “Efficacy (ratio of bound Ang-2 with mAb 30 µg/ml versus without)” value came out at 0.403 ratio.

B8: mAb 3.31.2 (antibody, V domains shown)
VH: EVQLVESGGGLVQPGGSLRLSCAASGFTFSSYWMSWVRQAPGKGLEWVANIKQDGSDKYYVDSVKGRFTISRDNAKNSLYLRMNSLRAEDTAVFYCARDMGSGWFDYWGQGTLVTVSS
VL: EVVMTQSPATLSVSPGERATLSCRASQSVGSNLAWYQQKPGQAPRLLIYGASTRATGIPARFSGSGSGTEFTLTISSLQSEDFAVYCCQQYNHWWTFGQGTKVEIKR
notes: Human hybridoma IgG (XenoMouse); also called x3.31
Turning to B8, the “EC50, inhibition … (HEK293F/Tie2, ELISA)” value in assay [2] turned out to be 0.043 µg/mL. In assay [3], the half-maximal effective concentration (EC50) was found to be 0.0417 µg/mL and the “Efficacy (ratio of bound Ang-2 with mAb 30 µg/ml versus without)” value was determined as 0.375 ratio.

B9: mAb 3.3.2 (antibody, V domains shown)
VH: EVQLVESGGGLVQPGGSLRLSCAVSGFTFSSYWMSWVRQAPGKGLEWVANIKQDGSEKYYVDSVKGRFTISRDNAKNSLYLQMNSLRAEDTAVYYCARDQGIAVAGPFDYWGQGTLVTVSS
VL: EIVMTQSPATLSVSPGERATLSCRASQTVSSDLAWYQQKPGQAPRLLIYGASIRATGIPARFSGSGSGTEFTLTISSLQSEDFAVYSCQQYYNWWTFGQGTKVEIKR
notes: Human hybridoma IgG (XenoMouse); also called 3.3.1; x3.3
With B9, in assay [2], the “EC50, inhibition … (HEK293F/Tie2, ELISA)” value was 0.046 µg/mL. Moreover, in assay [3], the EC50 worked out at 0.168 µg/mL and the “Efficacy (ratio of bound Ang-2 with mAb 30 µg/ml versus without)” value was determined as 0.388 ratio.
